Laboratory results reported in article PMC8215223.

T1: tubulin (endogenous), P07437
T1 chain: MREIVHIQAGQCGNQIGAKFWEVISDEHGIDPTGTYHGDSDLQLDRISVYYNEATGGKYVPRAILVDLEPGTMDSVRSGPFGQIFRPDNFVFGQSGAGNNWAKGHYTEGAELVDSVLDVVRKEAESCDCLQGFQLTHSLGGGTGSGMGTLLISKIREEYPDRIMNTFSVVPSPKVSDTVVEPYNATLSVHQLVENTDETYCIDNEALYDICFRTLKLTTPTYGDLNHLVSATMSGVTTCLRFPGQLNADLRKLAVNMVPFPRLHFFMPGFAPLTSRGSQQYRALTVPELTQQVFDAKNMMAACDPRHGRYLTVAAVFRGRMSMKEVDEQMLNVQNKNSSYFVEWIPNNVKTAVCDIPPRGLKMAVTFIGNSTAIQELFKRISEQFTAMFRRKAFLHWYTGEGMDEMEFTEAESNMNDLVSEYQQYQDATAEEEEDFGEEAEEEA

B1: GFP-WT-HOOK3, Q86VS8 S238A (protein)
chain: MFSVESLERAELCESLLTWIQTFNVDAPCQTVEDLTNGVVMAQVLQKIDPAYFDENWLNRIKTEVGDNWRLKISNLKKILKGILDYNHEILGQQINDFTLPDVNLIGEHSDAAELGRMLQLILGCAVNCEQKQEYIQAIMMMEESVQHVVMTAIQELMSKESPVSAGNDAYVDLDRQLKKTTEELNEALSAKEEIAQRCHELDMQVAALQEEKSSLLAENQVLMERLNQSDSIEDPNAPAGRRHLQLQTQLEQLQEETFRLEAAKDDYRIRCEELEKEISELRQQNDELTTLADEAQSLKDEIDVLRHSSDKVSKLEGQVESYKKKLEDLGDLRRQVKLLEEKNTMYMQNTVSLEEELRKANAARSQLETYKRQVVELQNRLSEESKKADKLDFEYKRLKEKVDSLQKEKDRLRTERDSLKETIEELRCVQAQEGQLTTQGLMPLGSQESSDSLAAEIVTPEIREKLIRLQHENKMLKLNQEGSDNEKIALLQSLLDDANLRKNELETENRLVNQRLLEVQSQVEELQKSLQDQGSKAEDSVLLKKKLEEHLEKLHEANNELQKKRAIIEDLEPRFNNSSLKIEELQEALRKKEEEMKQMEERYKKYLEKAKSVIRTLDPKQNQGAAPEIQALKNQLQERDRLFHSLEKEYEKTKSQREMEEKYIVSAWYNMGMTLHKKAAEDRLASTGSGQSFLARQRQATSSRRSYPGHVQPATAR
B2: GFP-WT-HOOK3, Q86VS8 S238E; S707E (protein)
chain: MFSVESLERAELCESLLTWIQTFNVDAPCQTVEDLTNGVVMAQVLQKIDPAYFDENWLNRIKTEVGDNWRLKISNLKKILKGILDYNHEILGQQINDFTLPDVNLIGEHSDAAELGRMLQLILGCAVNCEQKQEYIQAIMMMEESVQHVVMTAIQELMSKESPVSAGNDAYVDLDRQLKKTTEELNEALSAKEEIAQRCHELDMQVAALQEEKSSLLAENQVLMERLNQSDSIEDPNEPAGRRHLQLQTQLEQLQEETFRLEAAKDDYRIRCEELEKEISELRQQNDELTTLADEAQSLKDEIDVLRHSSDKVSKLEGQVESYKKKLEDLGDLRRQVKLLEEKNTMYMQNTVSLEEELRKANAARSQLETYKRQVVELQNRLSEESKKADKLDFEYKRLKEKVDSLQKEKDRLRTERDSLKETIEELRCVQAQEGQLTTQGLMPLGSQESSDSLAAEIVTPEIREKLIRLQHENKMLKLNQEGSDNEKIALLQSLLDDANLRKNELETENRLVNQRLLEVQSQVEELQKSLQDQGSKAEDSVLLKKKLEEHLEKLHEANNELQKKRAIIEDLEPRFNNSSLKIEELQEALRKKEEEMKQMEERYKKYLEKAKSVIRTLDPKQNQGAAPEIQALKNQLQERDRLFHSLEKEYEKTKSQREMEEKYIVSAWYNMGMTLHKKAAEDRLASTGSGQSFLARQRQATSSRREYPGHVQPATAR
B3: GFP-WT-HOOK3, Q86VS8 S707E (protein)
chain: MFSVESLERAELCESLLTWIQTFNVDAPCQTVEDLTNGVVMAQVLQKIDPAYFDENWLNRIKTEVGDNWRLKISNLKKILKGILDYNHEILGQQINDFTLPDVNLIGEHSDAAELGRMLQLILGCAVNCEQKQEYIQAIMMMEESVQHVVMTAIQELMSKESPVSAGNDAYVDLDRQLKKTTEELNEALSAKEEIAQRCHELDMQVAALQEEKSSLLAENQVLMERLNQSDSIEDPNSPAGRRHLQLQTQLEQLQEETFRLEAAKDDYRIRCEELEKEISELRQQNDELTTLADEAQSLKDEIDVLRHSSDKVSKLEGQVESYKKKLEDLGDLRRQVKLLEEKNTMYMQNTVSLEEELRKANAARSQLETYKRQVVELQNRLSEESKKADKLDFEYKRLKEKVDSLQKEKDRLRTERDSLKETIEELRCVQAQEGQLTTQGLMPLGSQESSDSLAAEIVTPEIREKLIRLQHENKMLKLNQEGSDNEKIALLQSLLDDANLRKNELETENRLVNQRLLEVQSQVEELQKSLQDQGSKAEDSVLLKKKLEEHLEKLHEANNELQKKRAIIEDLEPRFNNSSLKIEELQEALRKKEEEMKQMEERYKKYLEKAKSVIRTLDPKQNQGAAPEIQALKNQLQERDRLFHSLEKEYEKTKSQREMEEKYIVSAWYNMGMTLHKKAAEDRLASTGSGQSFLARQRQATSSRREYPGHVQPATAR
B4: GFP-WT-HOOK3, Q86VS8 S238E (protein)
chain: MFSVESLERAELCESLLTWIQTFNVDAPCQTVEDLTNGVVMAQVLQKIDPAYFDENWLNRIKTEVGDNWRLKISNLKKILKGILDYNHEILGQQINDFTLPDVNLIGEHSDAAELGRMLQLILGCAVNCEQKQEYIQAIMMMEESVQHVVMTAIQELMSKESPVSAGNDAYVDLDRQLKKTTEELNEALSAKEEIAQRCHELDMQVAALQEEKSSLLAENQVLMERLNQSDSIEDPNEPAGRRHLQLQTQLEQLQEETFRLEAAKDDYRIRCEELEKEISELRQQNDELTTLADEAQSLKDEIDVLRHSSDKVSKLEGQVESYKKKLEDLGDLRRQVKLLEEKNTMYMQNTVSLEEELRKANAARSQLETYKRQVVELQNRLSEESKKADKLDFEYKRLKEKVDSLQKEKDRLRTERDSLKETIEELRCVQAQEGQLTTQGLMPLGSQESSDSLAAEIVTPEIREKLIRLQHENKMLKLNQEGSDNEKIALLQSLLDDANLRKNELETENRLVNQRLLEVQSQVEELQKSLQDQGSKAEDSVLLKKKLEEHLEKLHEANNELQKKRAIIEDLEPRFNNSSLKIEELQEALRKKEEEMKQMEERYKKYLEKAKSVIRTLDPKQNQGAAPEIQALKNQLQERDRLFHSLEKEYEKTKSQREMEEKYIVSAWYNMGMTLHKKAAEDRLASTGSGQSFLARQRQATSSRRSYPGHVQPATAR
B5: GFP-WT-HOOK3, Q86VS8 S707A (protein)
chain: MFSVESLERAELCESLLTWIQTFNVDAPCQTVEDLTNGVVMAQVLQKIDPAYFDENWLNRIKTEVGDNWRLKISNLKKILKGILDYNHEILGQQINDFTLPDVNLIGEHSDAAELGRMLQLILGCAVNCEQKQEYIQAIMMMEESVQHVVMTAIQELMSKESPVSAGNDAYVDLDRQLKKTTEELNEALSAKEEIAQRCHELDMQVAALQEEKSSLLAENQVLMERLNQSDSIEDPNSPAGRRHLQLQTQLEQLQEETFRLEAAKDDYRIRCEELEKEISELRQQNDELTTLADEAQSLKDEIDVLRHSSDKVSKLEGQVESYKKKLEDLGDLRRQVKLLEEKNTMYMQNTVSLEEELRKANAARSQLETYKRQVVELQNRLSEESKKADKLDFEYKRLKEKVDSLQKEKDRLRTERDSLKETIEELRCVQAQEGQLTTQGLMPLGSQESSDSLAAEIVTPEIREKLIRLQHENKMLKLNQEGSDNEKIALLQSLLDDANLRKNELETENRLVNQRLLEVQSQVEELQKSLQDQGSKAEDSVLLKKKLEEHLEKLHEANNELQKKRAIIEDLEPRFNNSSLKIEELQEALRKKEEEMKQMEERYKKYLEKAKSVIRTLDPKQNQGAAPEIQALKNQLQERDRLFHSLEKEYEKTKSQREMEEKYIVSAWYNMGMTLHKKAAEDRLASTGSGQSFLARQRQATSSRRAYPGHVQPATAR
B6: GFP-WT-HOOK3, Q86VS8 S238A; S707A (protein)
chain: MFSVESLERAELCESLLTWIQTFNVDAPCQTVEDLTNGVVMAQVLQKIDPAYFDENWLNRIKTEVGDNWRLKISNLKKILKGILDYNHEILGQQINDFTLPDVNLIGEHSDAAELGRMLQLILGCAVNCEQKQEYIQAIMMMEESVQHVVMTAIQELMSKESPVSAGNDAYVDLDRQLKKTTEELNEALSAKEEIAQRCHELDMQVAALQEEKSSLLAENQVLMERLNQSDSIEDPNAPAGRRHLQLQTQLEQLQEETFRLEAAKDDYRIRCEELEKEISELRQQNDELTTLADEAQSLKDEIDVLRHSSDKVSKLEGQVESYKKKLEDLGDLRRQVKLLEEKNTMYMQNTVSLEEELRKANAARSQLETYKRQVVELQNRLSEESKKADKLDFEYKRLKEKVDSLQKEKDRLRTERDSLKETIEELRCVQAQEGQLTTQGLMPLGSQESSDSLAAEIVTPEIREKLIRLQHENKMLKLNQEGSDNEKIALLQSLLDDANLRKNELETENRLVNQRLLEVQSQVEELQKSLQDQGSKAEDSVLLKKKLEEHLEKLHEANNELQKKRAIIEDLEPRFNNSSLKIEELQEALRKKEEEMKQMEERYKKYLEKAKSVIRTLDPKQNQGAAPEIQALKNQLQERDRLFHSLEKEYEKTKSQREMEEKYIVSAWYNMGMTLHKKAAEDRLASTGSGQSFLARQRQATSSRRAYPGHVQPATAR

Molecular target: T1, tubulin (endogenous), P07437
Assay: coIP (co-immunoprecipitation, blot band intensity quantified)
Conditions: chain shown with the change; HeLa cells, 100 ng/mL nocodazole for 16 hr (+); parent: est. 7.8; read off a plot

| Binder | response [A.U] |
| --- | --- |
| B1 | 8.8 |
| B2 | 9 |
| B3 | 12 |
| B4 | 20 |
| B5 | 8.5 |
| B6 | 19 |
